# Assay results taken from patent publication US20240319212A1 (IMMUNDIAGNOSTIK, published 2024).
# T1: soluble recombinant megalin M3 fragment (amino acids 2698 to 3192 of human LRP2/megalin, C-terminal 6x His … (human, UniProt P98164 2698-3192))
# T1 construct: Expressed in HEK 293 cells and secreted, with the signal peptide removed; It tends to dimerise; also called E2698-R3192
# T1 sequence: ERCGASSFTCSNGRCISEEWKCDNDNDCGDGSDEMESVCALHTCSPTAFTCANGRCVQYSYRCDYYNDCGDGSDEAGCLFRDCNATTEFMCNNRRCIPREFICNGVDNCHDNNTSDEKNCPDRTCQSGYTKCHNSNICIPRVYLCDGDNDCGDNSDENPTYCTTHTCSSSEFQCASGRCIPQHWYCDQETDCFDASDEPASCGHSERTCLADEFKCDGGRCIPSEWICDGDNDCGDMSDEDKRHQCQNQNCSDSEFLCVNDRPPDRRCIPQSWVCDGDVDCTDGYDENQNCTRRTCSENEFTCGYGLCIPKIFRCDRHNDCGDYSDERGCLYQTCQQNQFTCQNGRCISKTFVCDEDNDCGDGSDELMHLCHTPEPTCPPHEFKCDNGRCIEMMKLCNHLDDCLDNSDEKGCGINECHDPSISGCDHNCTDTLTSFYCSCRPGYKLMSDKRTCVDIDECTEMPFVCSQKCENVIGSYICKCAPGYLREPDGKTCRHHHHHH
# T2: complex of vitamin D binding protein with the 3C-epimer of 25(OH)D3 (human, UniProt P02774 17-474)
# T2 construct: Same protein as m4, occupied by the epimer; also called DBP:3-epi-25(OH)D3
# T2 sequence (looked up): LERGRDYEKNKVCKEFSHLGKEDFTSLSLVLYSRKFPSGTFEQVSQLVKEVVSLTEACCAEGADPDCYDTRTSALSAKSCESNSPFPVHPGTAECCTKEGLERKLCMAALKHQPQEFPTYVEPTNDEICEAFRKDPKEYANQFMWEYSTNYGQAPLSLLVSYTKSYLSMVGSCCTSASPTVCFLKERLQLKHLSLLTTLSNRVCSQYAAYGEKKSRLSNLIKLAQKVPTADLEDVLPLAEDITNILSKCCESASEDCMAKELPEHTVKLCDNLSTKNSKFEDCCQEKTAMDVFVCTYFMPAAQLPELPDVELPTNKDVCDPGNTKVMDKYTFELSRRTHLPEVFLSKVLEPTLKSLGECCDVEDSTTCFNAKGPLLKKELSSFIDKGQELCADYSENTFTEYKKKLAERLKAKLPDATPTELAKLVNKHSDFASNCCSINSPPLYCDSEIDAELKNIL
# T3: complex of vitamin D binding protein with 25-hydroxyvitamin D2 (DBP:25(OH)VD2) (human, UniProt P02774 17-474)
# T3 construct: Same protein as m4; 50 nM NT-647-labelled DBP was mixed with 37.8 nM metabolite; also called DBP-VD2
# T3 sequence (looked up): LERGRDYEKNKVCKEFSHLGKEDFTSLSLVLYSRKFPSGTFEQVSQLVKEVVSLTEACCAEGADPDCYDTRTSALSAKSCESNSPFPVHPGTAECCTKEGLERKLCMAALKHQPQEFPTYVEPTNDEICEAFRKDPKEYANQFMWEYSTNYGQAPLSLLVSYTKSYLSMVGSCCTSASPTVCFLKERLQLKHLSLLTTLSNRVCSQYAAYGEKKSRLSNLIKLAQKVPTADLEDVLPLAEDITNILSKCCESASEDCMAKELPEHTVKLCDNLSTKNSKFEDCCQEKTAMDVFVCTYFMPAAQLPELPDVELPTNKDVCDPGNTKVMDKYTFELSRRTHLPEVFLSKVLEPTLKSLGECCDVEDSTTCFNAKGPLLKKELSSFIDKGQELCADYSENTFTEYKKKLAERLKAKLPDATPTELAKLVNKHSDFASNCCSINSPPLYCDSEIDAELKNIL
# T4: complex of vitamin D binding protein with 24,25-dihydroxyvitamin D (DBP-24,25VD) (human, UniProt P02774 17-474)
# T4 construct: Same protein as m4; 50 nM NT-647-labelled DBP was mixed with 37.8 nM metabolite; also called DBP:24,25(OH)VD
# T4 sequence (looked up): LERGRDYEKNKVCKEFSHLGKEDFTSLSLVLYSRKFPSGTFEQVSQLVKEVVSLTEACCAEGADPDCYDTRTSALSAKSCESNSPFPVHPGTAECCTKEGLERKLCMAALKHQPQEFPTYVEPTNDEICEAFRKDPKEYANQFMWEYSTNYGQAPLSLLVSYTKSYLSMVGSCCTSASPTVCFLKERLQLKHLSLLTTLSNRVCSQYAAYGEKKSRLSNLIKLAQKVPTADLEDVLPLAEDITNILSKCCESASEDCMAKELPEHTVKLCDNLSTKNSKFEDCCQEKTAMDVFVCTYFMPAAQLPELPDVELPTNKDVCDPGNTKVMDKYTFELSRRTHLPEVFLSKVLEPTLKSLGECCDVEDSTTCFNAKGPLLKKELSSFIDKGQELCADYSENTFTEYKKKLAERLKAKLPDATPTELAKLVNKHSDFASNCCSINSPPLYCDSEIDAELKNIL
# B1: complex of vitamin D binding protein with 25-hydroxyvitamin D3 (DBP:25(OH)D3) (ligand, human, UniProt P02774 17-474, looked up)
# chain: LERGRDYEKNKVCKEFSHLGKEDFTSLSLVLYSRKFPSGTFEQVSQLVKEVVSLTEACCAEGADPDCYDTRTSALSAKSCESNSPFPVHPGTAECCTKEGLERKLCMAALKHQPQEFPTYVEPTNDEICEAFRKDPKEYANQFMWEYSTNYGQAPLSLLVSYTKSYLSMVGSCCTSASPTVCFLKERLQLKHLSLLTTLSNRVCSQYAAYGEKKSRLSNLIKLAQKVPTADLEDVLPLAEDITNILSKCCESASEDCMAKELPEHTVKLCDNLSTKNSKFEDCCQEKTAMDVFVCTYFMPAAQLPELPDVELPTNKDVCDPGNTKVMDKYTFELSRRTHLPEVFLSKVLEPTLKSLGECCDVEDSTTCFNAKGPLLKKELSSFIDKGQELCADYSENTFTEYKKKLAERLKAKLPDATPTELAKLVNKHSDFASNCCSINSPPLYCDSEIDAELKNIL
# notes: Same protein as m4, occupied by the small molecule 25(OH)D3; Both are treated as this one entry; also called DBP:VD3; DBP/VD3
# B2: vitamin D binding protein (DBP) alone, without added vitamin D metabolite (ligand, human, UniProt P02774 17-474, looked up)
# chain: LERGRDYEKNKVCKEFSHLGKEDFTSLSLVLYSRKFPSGTFEQVSQLVKEVVSLTEACCAEGADPDCYDTRTSALSAKSCESNSPFPVHPGTAECCTKEGLERKLCMAALKHQPQEFPTYVEPTNDEICEAFRKDPKEYANQFMWEYSTNYGQAPLSLLVSYTKSYLSMVGSCCTSASPTVCFLKERLQLKHLSLLTTLSNRVCSQYAAYGEKKSRLSNLIKLAQKVPTADLEDVLPLAEDITNILSKCCESASEDCMAKELPEHTVKLCDNLSTKNSKFEDCCQEKTAMDVFVCTYFMPAAQLPELPDVELPTNKDVCDPGNTKVMDKYTFELSRRTHLPEVFLSKVLEPTLKSLGECCDVEDSTTCFNAKGPLLKKELSSFIDKGQELCADYSENTFTEYKKKLAERLKAKLPDATPTELAKLVNKHSDFASNCCSINSPPLYCDSEIDAELKNIL
# notes: also called apoprotein DBP; non-complexed DBP
# B3: soluble recombinant megalin M2 fragment (amino acids 1024-1429 of human LRP2/megalin, C-terminal 6x His tag) (receptor)
# chain: EQCGLFSFPCKNGRCVPNYYLCDGVDDCHDNSDEQLCGTLNNTCSSSAFTCGHGECIPAHWRCDKRNDCVDGSDEHNCPTHAPASCLDTQYTCDNHQCISKNWVCDTDNDCGDGSDEKNCNSTETCQPSQFNCPNHRCIDLSFVCDGDKDCVDGSDEVGCVLNCTASQFKCASGDKCIGVTNRCDGVFDCSDNSDEAGCPTRPPGMCHSDEFQCQEDGICIPNFWECDGHPDCLYGSDEHNACVPKTCPSSYFHCDNGNCIHRAWLCDRDNDCGDMSDEKDCPTQPFRCPSWQWQCLGHNICVNLSVVCDGIFDCPNGTDESPLCNGNSCSDFNGGCTHECVQEPFGAKCLCPLGFLLANDSKTCEDIDECDILGSCSQHCYNMRGSFRCSCDTGYMLESDGRTCKHHHHHH
# notes: Expressed in and secreted by HEK cells, with the signal peptide removed; It tends to dimerise and is the fragment most easily dissociated to monomer; also called E1024-K1429
# Key:
# [1] = target: B3; test: microscale thermophoresis; NT-647-labelled DBP mixed with 1,25(OH)VD3; purified megalin M2 titrated (set-up as in paragraph 103)
# [2] = target: T1, soluble recombinant megalin M3 fragment …; test: co-immunoprecipitation with lysate of HEK cells expressing M3; pull-down with anti-His antibody beads; Western blot with anti-DBP antibody
# [3] = target: T2, complex of vitamin D binding protein …; test: microscale thermophoresis; NT-647-labelled DBP (50 nM) mixed with the vitamin D metabolite (37.8 nM), here 3epi25(OH)VD3; purified megalin M2 titrated
# [4] = target: B1; test: MST, NT-647-labelled DBP (50 nM) mixed with 25(OH)VD3 (37.8 nM), megalin M2 titrated
# [5] = target: T3, complex of vitamin D binding protein …; test: MST, NT-647-labelled DBP (50 nM) mixed with 25(OH)VD2 (37.8 nM), megalin M2 titrated
# [6] = target: B1; test: MST, NT-647-labelled DBP (50 nM) with VD3 (50 nM), megalin fragment titrated
# [7] = target: B2; test: MST, NT-647-labelled DBP (50 nM), megalin fragment titrated, absence of 25-OH vitamin D3; microscale thermophoresis; NT-647-labelled DBP, purified soluble M2 titrated 0.488-1000 nmol/L; absence of 25-OH vitamin D3
# Human C1q = Human C1q (human, UniProt P02745 23-245; P02746 28-253; P02747 29-245); test: peptide array of megalin M2 region; major binding epitopes of megalin ligands
# Human Albumin-His-tag = target: T5, Human Albumin-His-tag (human, UniProt P02768 25-609); test: as above
# T5 construct: not shown: His-tag
# [8] = target: T4, complex of vitamin D binding protein …; test: MST, NT-647-labelled DBP (50 nM) mixed with 24,25VD (37.8 nM), megalin M2 titrated
# [9] = target: B3; test: peptide array of megalin M2 region; major binding epitopes of megalin ligands
# T5 sequence (P02768 25-609 limits assumed): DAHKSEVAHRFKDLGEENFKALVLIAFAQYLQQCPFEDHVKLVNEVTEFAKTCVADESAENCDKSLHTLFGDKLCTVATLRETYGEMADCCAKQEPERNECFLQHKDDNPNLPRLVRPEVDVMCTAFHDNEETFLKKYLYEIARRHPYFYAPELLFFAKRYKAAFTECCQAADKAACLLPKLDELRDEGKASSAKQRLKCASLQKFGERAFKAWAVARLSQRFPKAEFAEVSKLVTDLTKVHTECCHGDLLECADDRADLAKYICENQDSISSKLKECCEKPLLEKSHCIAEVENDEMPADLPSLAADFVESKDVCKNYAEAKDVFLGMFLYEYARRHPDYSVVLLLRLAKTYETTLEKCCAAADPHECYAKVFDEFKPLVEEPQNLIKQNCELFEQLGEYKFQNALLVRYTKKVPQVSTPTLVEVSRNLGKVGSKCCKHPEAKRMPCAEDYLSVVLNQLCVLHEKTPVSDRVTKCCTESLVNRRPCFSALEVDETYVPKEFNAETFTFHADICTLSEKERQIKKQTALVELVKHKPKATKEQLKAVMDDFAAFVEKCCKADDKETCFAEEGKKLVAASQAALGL
# Chain of Human C1q (P02745 23-245 limits assumed, chain 1 of 3): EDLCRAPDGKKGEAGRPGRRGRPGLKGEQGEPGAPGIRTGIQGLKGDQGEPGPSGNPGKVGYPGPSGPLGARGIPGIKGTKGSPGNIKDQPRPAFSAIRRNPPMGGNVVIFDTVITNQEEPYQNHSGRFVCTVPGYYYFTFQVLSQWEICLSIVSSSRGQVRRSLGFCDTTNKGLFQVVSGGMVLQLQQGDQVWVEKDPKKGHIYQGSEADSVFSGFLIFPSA
# Chain of Human C1q (P02746 28-253 limits assumed, chain 2 of 3): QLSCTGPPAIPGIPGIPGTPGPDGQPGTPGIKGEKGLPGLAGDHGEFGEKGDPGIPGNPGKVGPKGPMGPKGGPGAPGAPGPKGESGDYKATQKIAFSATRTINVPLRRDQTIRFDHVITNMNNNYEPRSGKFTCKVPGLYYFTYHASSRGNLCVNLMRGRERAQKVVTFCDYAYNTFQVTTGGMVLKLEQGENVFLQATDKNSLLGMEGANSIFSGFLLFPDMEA
# Chain of Human C1q (P02747 29-245 limits assumed, chain 3 of 3): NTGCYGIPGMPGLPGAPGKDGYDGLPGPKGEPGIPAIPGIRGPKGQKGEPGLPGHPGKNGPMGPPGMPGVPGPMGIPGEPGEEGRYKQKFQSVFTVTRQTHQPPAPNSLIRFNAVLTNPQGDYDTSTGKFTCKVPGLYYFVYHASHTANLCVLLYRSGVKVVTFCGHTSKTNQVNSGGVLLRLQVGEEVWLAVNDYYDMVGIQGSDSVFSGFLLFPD
binder,measurement,setting,value
"DBP-1,25(OH)VD3 complex (ligand, The protein carries the red fluorescent dye NT-647 (positions not stated). 1,25(OH)2 vitamin D3 is bound non-covalently and cannot be written in letters. It is a natural glycoprotein., also called DBP:1,25(OH)2D3) LERGRDYEKNKVCKEFSHLGKEDFTSLSLVLYSRKFPSGTFEQVSQLVKEVVSLTEACCAEGADPDCYDTRTSALSAKSCESNSPFPVHPGTAECCTKEGLERKLCMAALKHQPQEFPTYVEPTNDEICEAFRKDPKEYANQFMWEYSTNYGQAPLSLLVSYTKSYLSMVGSCCTSASPTVCFLKERLQLKHLSLLTTLSNRVCSQYAAYGEKKSRLSNLIKLAQKVPTADLEDVLPLAEDITNILSKCCESASEDCMAKELPEHTVKLCDNLSTKNSKFEDCCQEKTAMDVFVCTYFMPAAQLPELPDVELPTNKDVCDPGNTKVMDKYTFELSRRTHLPEVFLSKVLEPTLKSLGECCDVEDSTTCFNAKGPLLKKELSSFIDKGQELCADYSENTFTEYKKKLAERLKAKLPDATPTELAKLVNKHSDFASNCCSINSPPLYCDSEIDAELKNIL",Kd,[1],18.1 nM
B1,binding result,[2],"no binding (tested: DBP 0,5 µg with VD3 0,2 µg)"
B2,binding result,[2],"no binding (tested: DBP 0,5 µg)"
B3,Kd,[3],5.86 nM
same,Kd,[4],33.7 nM
same,Kd,[5],160 nM
same,Kd,[6],23.7 nM
same,Kd,[7],134 nM
same,binding result,Human C1q,binds
same,binding result,Human Albumin-His-tag,binds
same,Kd,[8],171 nM
"Human RAP (ligand, UniProt P30533 35-357, looked up) YSREKNQPKPSPKRESGEEFRMEKLNQLWEKAQRLHLPPVRLAELHADLKIQERDELAWKKLKLDGLDEDGEKEARLIRNLNVILAKYGLDGKKDARQVTSNSLSGTQEDGLDDPRLEKLWHKAKTSGKFSGEELDKLWREFLHHKEKVHEYNVLLETLSRTEEIHENVISPSDLSDIKGSVLHSRHTELKEKLRSINQGLDRLRRVSHQGYSTEAEFEEPRVIDLWDLAQSANLTDKELEAFREELKHFEAKIEKHNHYQKQLEIAHEKLRHAESVGDGERVSRSREKHALLEGRTKELGYTVKKHLQDLSGRISRARHNEL",binding result,[9],binds
